Key:
[1] = molecular target: GST-tagged IsdBC (Staphylococcus aureus Newman, UniProt A5IS15 328-645); experiment: cell-based or functional assay
[2] = molecular target: T1, GST-tagged IsdA (Staphylococcus aureus, UniProt A5IS16 47-316); experiment: cell-based or functional assay
T1 sequence: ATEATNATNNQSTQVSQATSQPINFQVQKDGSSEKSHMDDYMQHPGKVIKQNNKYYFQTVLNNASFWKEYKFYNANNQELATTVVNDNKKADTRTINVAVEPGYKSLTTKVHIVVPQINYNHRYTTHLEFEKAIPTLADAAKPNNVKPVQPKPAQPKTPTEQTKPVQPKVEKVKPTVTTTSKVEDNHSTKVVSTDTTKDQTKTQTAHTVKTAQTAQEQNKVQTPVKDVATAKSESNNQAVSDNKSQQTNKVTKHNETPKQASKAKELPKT

[3] = molecular target: T2, Poly-histidine tagged IsdB (Staphylococcus aureus, UniProt A5IS15 41-613); experiment: ELISA, coated poly-His IsdB
T2 construct: also called IsdBFL; recombinant IsdB
Protocol: Proteins were used to coat Nunc MaxiSorp 96-well plates at a concentration of 1 μg ml⁻¹ PBS. Plates were washed and incubated with PBS-Tween and variable concentrations of MAbs.

B1: MAb 3D8 (antibody, V domains shown)
VH: QVQLQQSGAELVRPGTSVKVSCKASGNAFTNYLIEWIKQRPGQGLEWIGVINPGSGITNYNEKFKGKATLTADKSSNTAYMQLSSLSSDDSAVYFCSGSANWFAYWGQGTLVTVSA
VL: DVVMTQTPLSLPVSLGDQASISCRSSQSLVYSNGNTYLHWFLQKPGQSPKLLIYKVSNRFSGVPDRFSGSGSGTDFTLKISRVEAEDLGVYFCSQTTHIPLTFGAGTKLELK
Δheme binding: percent change in Δ peak absorbance at 405 nm and 368 nm [1]: 29.4%
Δheme binding: percent change in Δ peak absorbance at 405 nm and 368 nm [2]: 34%

B2: MAb 7E9 (antibody, V domains shown)
VH: DVQLQESGPGLVKPSQSLSLTCSVTGHSITSGYYWNWIRQFPGNKLEWMGYISFDGRNKYNPSLKNRISITRDTSKNQFFLKLNSVTSEDTATYFCTRLSYSTLDYWGQGTSVTVSS
VL: DVVMTQTPLSLPVSLGDQASISCRSSQSLLYSNGNTYLHWYLQKPGQSPKLLIYKVSNRFSGVPDRFSASGSGTDFTLKISRVEAEDLGVYFCSQSTHVPLTFGAGTKLELK
Δheme binding: percent change in Δ peak absorbance at 405 nm and 368 nm [1]: 29%
Δheme binding: percent change in Δ peak absorbance at 405 nm and 368 nm [2]: 35%

B3: MAb 4H7 (antibody, V domains shown)
VH: EVQLLQSGPELVKPGTSVKMSCRTSGYTFTEYTMHWVKQSHEKRLEWIGGIDPSNGDTSYNQKFKGKATLTVDKSSSSAYMDLRSLTSVDSAIYYCARLEGVLPLDYWGHGTTLTVSS
VL: DVVMTQTPLSLPVSLGDQASISCRSSQSLVYSNGNTYLHWFLQKPGQSPKLLIYKVSNRFSGVPDRFSGSGSGTDFTLKISRVEAEDLGVYFCSQTTHIPLTFGAGTKLELK
Δheme binding: percent change in Δ peak absorbance at 405 nm and 368 nm [1]: 29%
Δheme binding: percent change in Δ peak absorbance at 405 nm and 368 nm [2]: 34.4%

B4: MAb 7D4 (antibody, V domains shown)
VH: EVQLQESGPELVKPGTSVWISCKTSGFTFTKYTMHWVKQSHGKTLEWIGGIDPNNGDTSYNQKFKDKATLTVDKSSSTAYMELRSLTSEDSAVFFCVRLEGSLPLDYWGQGTTLTVSS
VL: DVGMTQTPLSLPVSLGDQASISCGSSQSLLHSNGKTYLHWYLQKPGQSPKLLIYKVSNRFSGVPDRFSGSGSGTYFTLKITRVEAEDLGVYFCSQTTHVPFTFGSGTKLEIK
Δheme binding: percent change in Δ peak absorbance at 405 nm and 368 nm [2]: -0.6%

B5: MAb 1B8 (antibody, V domains shown)
VH: EVQLQESGPELVKPGTSVWISCKTSGFTFTKYTMHWVKQSHGKTLEWIGGIDPNNGDTSYNQKFKDKATLTVDKSSSTAYMELRSLTSEDSAVFFCVRLEGSLPLDYWGQGTTLTVSS
VL: DVVMTQTPLSLPVSLGDQASISCRSSQSLVHSNGNTYLHWYLQKPGQSPKLLIYKVSSRFSGVPDRFSGSGSGTDFTLKISRVEAEDLGVYFCSQSTHVPYTFGGGTKLEIKR
Δheme binding: percent change in Δ peak absorbance at 405 nm and 368 nm [2]: 0.5%

B6: MAb 5H8 (antibody, V domains shown)
VH: GLTGEPGTSVKMSCRTSGYTFTEYTMHWVKQSHEKRLEWIGGIDPSNGDTSYNQKFKGKATLTVDKSSSSAYMDLRSLTSVDSAIYYCARLEGVLPLDYWGHGTTLTVSS
VL: DIVMTQSQKFMSTSVRDRVAVTCKASQNVGTNVAWYQQKPGQSPKALIYSASYRYSGVPDRFTGSGSGTDFTLTISNVQSEDLAEYFCQQYNSYPYTFGGGTKLEVK
notes: also called 5H8.9
Δheme binding: percent change in Δ peak absorbance at 405 nm and 368 nm [2]: 0.5%
binding result [3]: no binding

B7: MAb 3H11 (antibody, V domains shown)
VH: SLDLTGEPGASVKMSCRTSGYTFTEYTMHWVKQSHEKSLEWIGGIDPDNGDTSFNQKFKGKATLTVDKSSSTAYMELRSLTYDDTAIYLCARLEGVLPLDYWGQGTTLTVSS
VL: DIVMTQSQKFMSTSVRDRVAVTCKASQNVGTNVAWYQQKPGQSPKALIYSASYRYSGVPDRFTGSGSGTDFTLTISNVQSEDLAEYFCQQYNSYPYTFGGGTKLEVK
notes: also called 3H11.47
Δheme binding: percent change in Δ peak absorbance at 405 nm and 368 nm [2]: 0.5%
binding result [3]: no binding
